Measured values from patent US10941182 (Amgen, dated 2021).
Starred links: 1 amine or outer side, 2 acyl side, 3 side chain; linkers in the order of their positions; H or OH if unused. Non-standard residues stand in square brackets, D forms with d. *: point of attachment. C18 diacid = O=C(O)CCCCCCCCCCCCCCCCC(=O)*; dBip = N[C@H](Cc1ccc(-c2ccccc2)cc1)C(=O)O; Oic = O=C(O)[C@@H]1C[C@@H]2CCCC[C@@H]2N1; Phe(4-Cl) = N[C@@H](Cc1ccc(Cl)cc1)C(=O)O; dPhe(4-Cl) = N[C@H](Cc1ccc(Cl)cc1)C(=O)O; Phe(4-I) = N[C@@H](Cc1ccc(I)cc1)C(=O)O; γGlu = O=C(O)[C@H](CCC(=O)[*:2])N[*:1]; NMeR = CN[C@@H](CCCNC(=N)N)C(=O)O; Tridecanoyl = CCCCCCCCCCCCC(=O)*; hArg = N=C(N)NCCCC[C@H](N)C(=O)O; dTic = O=C(O)[C@H]1Cc2ccccc2CN1; Cha = N[C@@H](CC1CCCCC1)C(=O)O; NMeL = CN[C@@H](CC(C)C)C(=O)O; Tle = CC(C)(C)[C@H](N)C(=O)O; Nle = CCCC[C@H](N)C(=O)O; Deg = CCC(N)(CC)C(=O)O; AEEA = NCCOCCOCC(=O)O; Aib = CC(C)(N)C(=O)O; BLeu = β-leucine

T1: human APJ receptor (human, UniProt P35414 1-380)
T1 sequence (looked up): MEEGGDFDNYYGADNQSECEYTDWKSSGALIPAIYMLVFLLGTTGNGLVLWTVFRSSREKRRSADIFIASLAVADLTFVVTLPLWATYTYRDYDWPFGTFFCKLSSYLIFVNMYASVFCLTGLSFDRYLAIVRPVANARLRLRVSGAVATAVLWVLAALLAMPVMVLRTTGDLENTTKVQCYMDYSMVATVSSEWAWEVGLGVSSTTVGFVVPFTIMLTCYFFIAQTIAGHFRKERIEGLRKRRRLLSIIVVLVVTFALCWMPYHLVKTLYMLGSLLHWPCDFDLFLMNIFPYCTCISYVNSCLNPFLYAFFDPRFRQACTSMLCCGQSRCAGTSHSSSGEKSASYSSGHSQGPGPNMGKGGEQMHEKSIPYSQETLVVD

T2: rat APJ receptor (rat, UniProt Q9JHG3 1-377)
T2 sequence (looked up): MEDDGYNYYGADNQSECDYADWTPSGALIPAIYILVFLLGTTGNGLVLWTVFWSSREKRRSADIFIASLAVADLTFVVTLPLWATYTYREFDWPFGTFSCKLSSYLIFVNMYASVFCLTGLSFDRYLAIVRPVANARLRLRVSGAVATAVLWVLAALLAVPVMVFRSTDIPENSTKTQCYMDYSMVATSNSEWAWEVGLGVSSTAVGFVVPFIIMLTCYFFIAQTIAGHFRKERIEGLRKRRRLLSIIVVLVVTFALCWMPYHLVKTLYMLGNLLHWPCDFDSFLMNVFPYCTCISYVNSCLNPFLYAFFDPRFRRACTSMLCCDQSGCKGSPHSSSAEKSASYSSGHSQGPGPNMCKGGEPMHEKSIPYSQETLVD


Tests used:
human APJ receptor = molecular target: T1, human APJ receptor; experiment: cell-based or functional assay
rat APJ receptor = molecular target: T2, rat APJ receptor; experiment: cell-based or functional assay

Binder | EC50 Human APJ Receptor (human APJ receptor) | EC50 Rat APJ Receptor (rat APJ receptor)
Tridecanoyl-[γGlu][AEEA][AEEA][dQ][hArg]P[dR][Cha]SHKG[Oic][Nle][Aib][Phe(4-Cl)]-OH (SMILES CCCCCCCCCCCCC(=O)N[C@@H](CCC(=O)NCCOCCOCC(=O)NCCOCCOCC(=O)N[C@H](CCC(N)=O)C(=O)N[C@@H](CCCCNC(=N)N)C(=O)N1CCC[C@H]1C(=O)N[C@H](CCCNC(=N)N)C(=O)N[C@@H](CC1CCCCC1)C(=O)N[C@@H](CO)C(=O)N[C@@H](Cc1c[nH]cn1)C(=O)N[C@@H](CCCCN)C(=O)NCC(=O)N1[C@H](C(=O)N[C@@H](CCCC)C(=O)NC(C)(C)C(=O)N[C@@H](Cc2ccc(Cl)cc2)C(=O)O)C[C@@H]2CCCC[C@@H]21)C(=O)O) [apelin polypeptide SEQ ID NO: 270] | 1.76 nM | 1.49 nM
Tridecanoyl-[γGlu][AEEA][AEEA]Q[dR]P[dR][Cha]SHKG[Oic][Nle]P[dPhe(4-Cl)]-OH (SMILES CCCCCCCCCCCCC(=O)N[C@@H](CCC(=O)NCCOCCOCC(=O)NCCOCCOCC(=O)N[C@@H](CCC(N)=O)C(=O)N[C@H](CCCNC(=N)N)C(=O)N1CCC[C@H]1C(=O)N[C@H](CCCNC(=N)N)C(=O)N[C@@H](CC1CCCCC1)C(=O)N[C@@H](CO)C(=O)N[C@@H](Cc1c[nH]cn1)C(=O)N[C@@H](CCCCN)C(=O)NCC(=O)N1[C@H](C(=O)N[C@@H](CCCC)C(=O)N2CCC[C@H]2C(=O)N[C@H](Cc2ccc(Cl)cc2)C(=O)O)C[C@@H]2CCCC[C@@H]21)C(=O)O) [apelin polypeptide SEQ ID NO: 266] | 5.81 nM | 33.2 nM
Ac-[hArg][hArg]Q[dR]P[dR][NMeL]SHKG[Oic][Phe(4-I)]P[dBip]-OH [apelin polypeptide SEQ ID NO: 20] | 0.189 nM | 0.706 nM
Tridecanoyl-[γGlu][AEEA][AEEA][dQ][hArg]P[dR][Cha]SHKG[Oic][Nle]P[dPhe(4-Cl)]-OH (SMILES CCCCCCCCCCCCC(=O)N[C@@H](CCC(=O)NCCOCCOCC(=O)NCCOCCOCC(=O)N[C@H](CCC(N)=O)C(=O)N[C@@H](CCCCNC(=N)N)C(=O)N1CCC[C@H]1C(=O)N[C@H](CCCNC(=N)N)C(=O)N[C@@H](CC1CCCCC1)C(=O)N[C@@H](CO)C(=O)N[C@@H](Cc1c[nH]cn1)C(=O)N[C@@H](CCCCN)C(=O)NCC(=O)N1[C@H](C(=O)N[C@@H](CCCC)C(=O)N2CCC[C@H]2C(=O)N[C@H](Cc2ccc(Cl)cc2)C(=O)O)C[C@@H]2CCCC[C@@H]21)C(=O)O) [apelin polypeptide SEQ ID NO: 265] | 1.2 nM | 14.5 nM
{C18 diacid}-[γGlu][AEEA][AEEA][hArg][dR]Q[hArg]P[dR][NMeL]SHKG[Oic][Phe(4-I)]P[dBip]-OH (SMILES CC(C)C[C@@H](C(=O)N[C@@H](CO)C(=O)N[C@@H](Cc1c[nH]cn1)C(=O)N[C@@H](CCCCN)C(=O)NCC(=O)N1[C@H](C(=O)N[C@@H](Cc2ccc(I)cc2)C(=O)N2CCC[C@H]2C(=O)N[C@H](Cc2ccc(-c3ccccc3)cc2)C(=O)O)C[C@@H]2CCCC[C@@H]21)N(C)C(=O)[C@@H](CCCNC(=N)N)NC(=O)[C@@H]1CCCN1C(=O)[C@H](CCCCNC(=N)N)NC(=O)[C@H](CCC(N)=O)NC(=O)[C@@H](CCCNC(=N)N)NC(=O)[C@H](CCCCNC(=N)N)NC(=O)COCCOCCNC(=O)COCCOCCNC(=O)CC[C@H](NC(=O)CCCCCCCCCCCCCCCCC(=O)O)C(=O)O) [apelin polypeptide SEQ ID NO: 264] | 145 nM | 193 nM
Tridecanoyl-[γGlu][AEEA][AEEA]Q[dR]P[NMeR][Cha]SHKG[Oic][Nle]P[Phe(4-Cl)]-OH (SMILES CCCCCCCCCCCCC(=O)N[C@@H](CCC(=O)NCCOCCOCC(=O)NCCOCCOCC(=O)N[C@@H](CCC(N)=O)C(=O)N[C@H](CCCNC(=N)N)C(=O)N1CCC[C@H]1C(=O)N(C)[C@@H](CCCNC(=N)N)C(=O)N[C@@H](CC1CCCCC1)C(=O)N[C@@H](CO)C(=O)N[C@@H](Cc1c[nH]cn1)C(=O)N[C@@H](CCCCN)C(=O)NCC(=O)N1[C@H](C(=O)N[C@@H](CCCC)C(=O)N2CCC[C@H]2C(=O)N[C@@H](Cc2ccc(Cl)cc2)C(=O)O)C[C@@H]2CCCC[C@@H]21)C(=O)O) [apelin polypeptide SEQ ID NO: 267] | 0.753 nM | 17.6 nM
Tridecanoyl-[γGlu][AEEA][AEEA][dQ][hArg]P[dR][Cha]SHKG[Oic][Nle]P[dTic]-OH (SMILES CCCCCCCCCCCCC(=O)N[C@@H](CCC(=O)NCCOCCOCC(=O)NCCOCCOCC(=O)N[C@H](CCC(N)=O)C(=O)N[C@@H](CCCCNC(=N)N)C(=O)N1CCC[C@H]1C(=O)N[C@H](CCCNC(=N)N)C(=O)N[C@@H](CC1CCCCC1)C(=O)N[C@@H](CO)C(=O)N[C@@H](Cc1c[nH]cn1)C(=O)N[C@@H](CCCCN)C(=O)NCC(=O)N1[C@H](C(=O)N[C@@H](CCCC)C(=O)N2CCC[C@H]2C(=O)N2Cc3ccccc3C[C@@H]2C(=O)O)C[C@@H]2CCCC[C@@H]21)C(=O)O) [apelin polypeptide SEQ ID NO: 269] | 73 nM | 52.3 nM

Continued, values first:

EC50 Human APJ Receptor (human APJ receptor) | EC50 Rat APJ Receptor (rat APJ receptor) | Binder
16.8 nM | 11.5 nM | Tridecanoyl-[γGlu][AEEA][AEEA][dQ][hArg]P[dR][Cha]SHKG[Oic][Tle]P[Phe(4-Cl)]-OH (SMILES CCCCCCCCCCCCC(=O)N[C@@H](CCC(=O)NCCOCCOCC(=O)NCCOCCOCC(=O)N[C@H](CCC(N)=O)C(=O)N[C@@H](CCCCNC(=N)N)C(=O)N1CCC[C@H]1C(=O)N[C@H](CCCNC(=N)N)C(=O)N[C@@H](CC1CCCCC1)C(=O)N[C@@H](CO)C(=O)N[C@@H](Cc1c[nH]cn1)C(=O)N[C@@H](CCCCN)C(=O)NCC(=O)N1[C@H](C(=O)N[C@H](C(=O)N2CCC[C@H]2C(=O)N[C@@H](Cc2ccc(Cl)cc2)C(=O)O)C(C)(C)C)C[C@@H]2CCCC[C@@H]21)C(=O)O) [apelin polypeptide SEQ ID NO: 272]
8.04 nM | 46.2 nM | Tridecanoyl-[γGlu][AEEA][AEEA][dQ][hArg]P[dR][BLeu]SHKG[Oic][Nle]P[Phe(4-Cl)]-OH [apelin polypeptide SEQ ID NO: 274]
1.67 nM | 5.09 nM | Tridecanoyl-[γGlu][AEEA][AEEA][dQ][hArg]P[dR][Cha]S[Aib]KG[Oic][Nle]P[Phe(4-Cl)]-OH (SMILES CCCCCCCCCCCCC(=O)N[C@@H](CCC(=O)NCCOCCOCC(=O)NCCOCCOCC(=O)N[C@H](CCC(N)=O)C(=O)N[C@@H](CCCCNC(=N)N)C(=O)N1CCC[C@H]1C(=O)N[C@H](CCCNC(=N)N)C(=O)N[C@@H](CC1CCCCC1)C(=O)N[C@@H](CO)C(=O)NC(C)(C)C(=O)N[C@@H](CCCCN)C(=O)NCC(=O)N1[C@H](C(=O)N[C@@H](CCCC)C(=O)N2CCC[C@H]2C(=O)N[C@@H](Cc2ccc(Cl)cc2)C(=O)O)C[C@@H]2CCCC[C@@H]21)C(=O)O) [apelin polypeptide SEQ ID NO: 273]
11.8 nM | 7.88 nM | Tridecanoyl-[γGlu][AEEA][AEEA][dQ][hArg]P[dR][Cha]SHKG[Oic][Nle][Deg][Phe(4-Cl)]-OH (SMILES CCCCCCCCCCCCC(=O)N[C@@H](CCC(=O)NCCOCCOCC(=O)NCCOCCOCC(=O)N[C@H](CCC(N)=O)C(=O)N[C@@H](CCCCNC(=N)N)C(=O)N1CCC[C@H]1C(=O)N[C@H](CCCNC(=N)N)C(=O)N[C@@H](CC1CCCCC1)C(=O)N[C@@H](CO)C(=O)N[C@@H](Cc1c[nH]cn1)C(=O)N[C@@H](CCCCN)C(=O)NCC(=O)N1[C@H](C(=O)N[C@@H](CCCC)C(=O)NC(CC)(CC)C(=O)N[C@@H](Cc2ccc(Cl)cc2)C(=O)O)C[C@@H]2CCCC[C@@H]21)C(=O)O) [apelin polypeptide SEQ ID NO: 271]
3.43 nM | 19.3 nM | Tridecanoyl-[γGlu][AEEA][AEEA][dQ][hArg]P[NMeR][BLeu]SHKG[Oic][Nle]P[Phe(4-Cl)]-OH [apelin polypeptide SEQ ID NO: 275]
16.1 nM | 20.9 nM | Tridecanoyl-[γGlu][AEEA][AEEA][dL][hArg]P[dR][Cha]SHKG[Oic][Nle]P[Phe(4-Cl)]-OH (SMILES CCCCCCCCCCCCC(=O)N[C@@H](CCC(=O)NCCOCCOCC(=O)NCCOCCOCC(=O)N[C@H](CC(C)C)C(=O)N[C@@H](CCCCNC(=N)N)C(=O)N1CCC[C@H]1C(=O)N[C@H](CCCNC(=N)N)C(=O)N[C@@H](CC1CCCCC1)C(=O)N[C@@H](CO)C(=O)N[C@@H](Cc1c[nH]cn1)C(=O)N[C@@H](CCCCN)C(=O)NCC(=O)N1[C@H](C(=O)N[C@@H](CCCC)C(=O)N2CCC[C@H]2C(=O)N[C@@H](Cc2ccc(Cl)cc2)C(=O)O)C[C@@H]2CCCC[C@@H]21)C(=O)O) [apelin polypeptide SEQ ID NO: 277]
